Patent US9994616B2, “c-Met protein agonist” (The University of Tokyo, priority 2013, dated 2018)
Where a SMILES comes first, the peptide text is derived from it. Bridges are numbered along the chain shown (N, C = ends). Roman numbers before positions name the chains, in order. Where no end group is shown, it is not given here. [ ]: non-standard residue; d: D form. NMeH = CN[C@@H](Cc1c[nH]cn1)C(=O)O; NMeR = CN[C@@H](CCCNC(=N)N)C(=O)O; NMeE = CN[C@@H](CCC(=O)O)C(=O)O; NMeQ = CN[C@@H](CCC(N)=O)C(=O)O; NMeV = CN[C@H](C(=O)O)C(C)C; βAla = NCCC(=O)O

Assays:
c-Met = biological target: T1, c-Met (Homo sapiens, UniProt P08581); experiment: Activity of dimeric peptide by ELISA (c-Met phosphorylation level in EHMES-1 cells); type: cell-based; settings: for Activity (c-Met phosphorylation level by ELISA): Table 12, EHMES-1 cells, 10 minutes stimulation; for c-Met phosphorylation: Table 13
T1 construct: endogenous in cells; host or cells: EHMES-1 (human mesothelioma)
T1 sequence (P08581 25-1390): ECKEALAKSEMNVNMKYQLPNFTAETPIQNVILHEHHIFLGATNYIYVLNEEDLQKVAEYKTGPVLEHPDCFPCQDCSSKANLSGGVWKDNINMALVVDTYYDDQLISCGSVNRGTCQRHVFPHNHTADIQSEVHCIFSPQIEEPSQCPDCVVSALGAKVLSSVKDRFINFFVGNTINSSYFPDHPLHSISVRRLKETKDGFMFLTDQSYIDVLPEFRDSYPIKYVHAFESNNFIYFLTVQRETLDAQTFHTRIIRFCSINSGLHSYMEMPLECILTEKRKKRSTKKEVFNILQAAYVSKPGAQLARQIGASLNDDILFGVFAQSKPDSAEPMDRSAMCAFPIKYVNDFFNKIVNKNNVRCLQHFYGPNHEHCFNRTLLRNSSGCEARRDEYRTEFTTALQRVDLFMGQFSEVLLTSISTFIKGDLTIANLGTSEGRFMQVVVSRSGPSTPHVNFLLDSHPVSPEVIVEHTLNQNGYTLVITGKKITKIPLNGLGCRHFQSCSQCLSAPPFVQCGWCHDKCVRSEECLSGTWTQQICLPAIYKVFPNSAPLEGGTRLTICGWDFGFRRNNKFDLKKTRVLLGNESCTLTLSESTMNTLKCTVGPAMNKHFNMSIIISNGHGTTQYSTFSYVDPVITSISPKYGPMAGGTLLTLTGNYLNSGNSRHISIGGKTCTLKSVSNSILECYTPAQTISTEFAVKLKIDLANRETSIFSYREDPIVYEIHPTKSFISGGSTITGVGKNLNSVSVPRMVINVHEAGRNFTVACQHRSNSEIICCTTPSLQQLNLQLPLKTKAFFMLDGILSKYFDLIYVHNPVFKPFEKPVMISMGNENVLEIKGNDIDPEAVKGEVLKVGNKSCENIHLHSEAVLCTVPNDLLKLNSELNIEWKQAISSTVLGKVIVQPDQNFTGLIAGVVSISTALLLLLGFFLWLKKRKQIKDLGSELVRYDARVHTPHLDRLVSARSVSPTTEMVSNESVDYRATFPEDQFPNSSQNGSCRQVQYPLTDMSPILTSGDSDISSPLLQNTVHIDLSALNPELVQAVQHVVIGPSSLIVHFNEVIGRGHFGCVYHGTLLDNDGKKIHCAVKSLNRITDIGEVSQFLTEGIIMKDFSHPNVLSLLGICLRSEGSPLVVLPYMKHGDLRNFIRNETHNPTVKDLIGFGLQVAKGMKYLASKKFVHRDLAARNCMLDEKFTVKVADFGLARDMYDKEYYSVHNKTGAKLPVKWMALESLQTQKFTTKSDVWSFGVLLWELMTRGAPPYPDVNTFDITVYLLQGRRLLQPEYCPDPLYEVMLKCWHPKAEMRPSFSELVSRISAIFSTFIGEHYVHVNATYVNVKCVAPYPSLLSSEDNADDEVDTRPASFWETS
Procedure: Each dimeric peptide was added to human EHMES-1 cells and the mixture was incubated for 10 minutes to stimulate the cells.
As a control experiment, a recombinant human HGF protein was added and the mixture was incubated for 10 minutes to stimulate cells.
A phosphorylation level of c-Met was quantitatively analyzed using ELISA.

c-Met-Fc = c-Met-Fc (Homo sapiens, UniProt P08581); experiment: Binding ability by surface plasmon resonance (SPR, Biacore); settings: for kon: read-out: ka
Chain of c-Met-Fc (P08581 with tags, fused parts or gaps limits assumed): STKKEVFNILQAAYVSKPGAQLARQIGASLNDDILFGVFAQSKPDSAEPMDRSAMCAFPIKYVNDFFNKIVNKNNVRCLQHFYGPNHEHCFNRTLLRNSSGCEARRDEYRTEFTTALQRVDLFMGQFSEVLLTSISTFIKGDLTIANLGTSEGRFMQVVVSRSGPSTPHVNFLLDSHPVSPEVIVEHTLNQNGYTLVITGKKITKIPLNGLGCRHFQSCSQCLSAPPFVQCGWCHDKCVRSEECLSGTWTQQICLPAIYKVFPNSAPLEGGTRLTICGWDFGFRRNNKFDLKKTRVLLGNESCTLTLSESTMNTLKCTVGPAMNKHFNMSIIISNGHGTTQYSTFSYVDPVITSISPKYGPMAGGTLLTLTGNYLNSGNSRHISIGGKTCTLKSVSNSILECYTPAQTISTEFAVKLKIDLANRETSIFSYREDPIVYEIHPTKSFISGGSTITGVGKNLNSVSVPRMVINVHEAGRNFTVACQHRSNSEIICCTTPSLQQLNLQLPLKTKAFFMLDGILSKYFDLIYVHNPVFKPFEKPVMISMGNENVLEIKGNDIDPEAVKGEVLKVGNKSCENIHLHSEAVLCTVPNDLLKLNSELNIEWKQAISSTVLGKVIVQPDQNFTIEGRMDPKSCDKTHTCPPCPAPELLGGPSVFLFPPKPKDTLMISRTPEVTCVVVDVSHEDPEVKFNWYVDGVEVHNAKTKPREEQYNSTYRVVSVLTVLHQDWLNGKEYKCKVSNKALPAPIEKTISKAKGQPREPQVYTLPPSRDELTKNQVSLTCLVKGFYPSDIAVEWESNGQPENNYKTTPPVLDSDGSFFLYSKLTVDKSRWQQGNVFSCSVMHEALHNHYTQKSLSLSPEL
Chain of c-Met-Fc (P08581 25-307 limits assumed): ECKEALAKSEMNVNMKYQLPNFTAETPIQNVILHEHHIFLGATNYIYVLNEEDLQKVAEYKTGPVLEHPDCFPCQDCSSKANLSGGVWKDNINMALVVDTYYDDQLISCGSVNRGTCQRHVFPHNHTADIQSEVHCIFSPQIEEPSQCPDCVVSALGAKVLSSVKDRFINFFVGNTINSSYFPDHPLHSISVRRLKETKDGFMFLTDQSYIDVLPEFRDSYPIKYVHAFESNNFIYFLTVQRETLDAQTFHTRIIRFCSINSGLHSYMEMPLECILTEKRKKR
Procedure: Binding ability of the thioether macrocyclic peptide was evaluated by SPR measurement using Biacore (GE Healthcare).
As a sensor chip, Sensor Chip CM5 was used and an anti-IgG antibody was immobilized on a measurement lane and a control lane by using Human Antibody Capture Kit.
On the measurement lane was immobilized c-Met-Fc, while on the control lane was immobilized Fc protein.
As a running buffer, HBS-EP+ buffer containing 0.1% DMSO was used and a dissociation constant of the thioether macrocyclic peptide was calculated at 5 different concentrations by using the single-kinetics method.

[1] = Stability of thioether macrocyclic peptide in human serum pool (LC-MS); type: in vitro ADME; settings: Table 8; human serum pool, 37° C., 1 μM, 1 h
Procedure: A DMSO solution of the thioether macrocyclic peptide to be evaluated was dissolved in a human serum pool to give a concentration of 1 μM. The human serum pool containing the thioether macrocyclic peptide thus prepared was incubated at 37° C.
After an elapse of the evaluation time, the human serum pool containing the thioether macrocyclic peptide was placed on ice and a peptide serving as an internal standard was added and mixed to give a concentration of 1 μM. The resulting mixture was added to a solid-phase extraction column (Hyper Sep SPE column, Thermo Scientific), washed with a 5% aqueous acetonitrile solution containing 0.1% TFA, and then purified by eluting with a 70% aqueous acetonitrile solution containing 0.1% TFA.
The molecular weight of the purified product was analyzed using LC-MS and the cleavage site in the serum was identified. In addition, the thioether macrocyclic peptide which had remained without being cleaved was quantitatively determined by comparing an amount relative to the internal standard at every incubation time.

[2] = Table 11, monomer and dimeric peptides

| Activity (c-Met phosphorylation level by ELISA) (c-Met) | c-Met phosphorylation (c-Met) | ka (c-Met-Fc; [2]) | kd (c-Met-Fc; [2]) | Compound | kd (c-Met-Fc; Table 8, c-Met-Fc) | further results |
| --- | --- | --- | --- | --- | --- | --- |
| High | Promote | 0.12 10^6 M^−1s^−1 | 0.054 10^−2 s^−1 | D5-4 Bis-MAL-PEG3: dimeric peptide: two D5-4 macrocycles linked through C-terminal Cys by Bis-MAL-PEG3 linker (peptide 1 {CH2CO}-[dY]WYYAWDQTYKAFPCG; peptide 2 {CH2CO}-[dY]WYYAWDQTYKAFPCG; thioether I:N-I:15, II:N-II:15; not fully specified (C-terminus); also: dimer: two chains joined by Bis-MAL-PEG3 through an added C-terminal Cys not in the letters) | – | – |
| – | – | – | – | CC(C)C[C@@H]1NC(=O)[C@H](CC(N)=O)NC(=O)[C@H](Cc2c[nH]c3ccccc23)NC(=O)[C@H](C(C)C)NC(=O)[C@H](CCC(=O)O)NC(=O)[C@H](Cc2c[nH]cn2)NC(=O)[C@H]([C@@H](C)O)NC(=O)[C@H](CCCNC(=N)N)NC(=O)[C@H](CCCNC(=N)N)NC(=O)[C@H](CC(N)=O)NC(=O)[C@H](Cc2ccccc2)NC(=O)[C@H](CCC(N)=O)NC(=O)[C@H](CCCNC(=N)N)N(C)C(=O)[C@@H](Cc2ccc(O)cc2)NC(=O)CSC[C@@H](C(=O)NCC(N)=O)NC(=O)[C@H](CC(=O)O)NC1=O [Peptide N2] ({CH2CO}-[dY][NMeR]QFNRRTHEVWNLDCG-NH2; thioether N-16; C-terminus assumed) | 1.0 10^−2 s^−1 | kon (c-Met-Fc; Table 8, c-Met-Fc): 710000 M⁻¹ s⁻¹; remaining at 1 h, 1 μM [1]: 5.4% |
| Low | Promote | 0.098 10^6 M^−1s^−1 | 0.031 10^−2 s^−1 | L5-2 Bis-MAL-PEG11: dimeric peptide: two L5-2 macrocycles linked through C-terminal Cys by Bis-MAL-PEG11 linker ({CH2CO}-YISWNEFNSPNWRFITCG[βAla]C-NH2; thioether N-17; not fully specified (residue 20); also: dimer: two copies joined by Bis-MAL-PEG11, linker at 20 via Bis-MAL-PEG11, other end not in the chain) | – | – |
| Low | Promote | 1.1 10^6 M^−1s^−1 | 0.070 10^−2 s^−1 | D4-3 Bis-MAL-PEG3: dimeric peptide: two D4-3 macrocycles linked through C-terminal Cys by Bis-MAL-PEG3 linker ({CH2CO}-[dY]RQFNRRTHEVWNLDCGC; thioether N-16; not fully specified (residue 18); also: dimer: two copies joined by Bis-MAL-PEG3, linker at 18 via Bis-MAL-PEG3, other end not in the chain) | – | – |
| – | – | – | – | CC(C)C[C@@H]1NC(=O)[C@H](CC(N)=O)NC(=O)[C@H](Cc2c[nH]c3ccccc23)NC(=O)[C@H](C(C)C)N(C)C(=O)[C@H](CCC(=O)O)NC(=O)[C@H](Cc2c[nH]cn2)NC(=O)[C@H]([C@@H](C)O)NC(=O)[C@H](CCCNC(=N)N)NC(=O)[C@H](CCCNC(=N)N)NC(=O)[C@H](CC(N)=O)NC(=O)[C@H](Cc2ccccc2)NC(=O)[C@H](CCC(N)=O)NC(=O)[C@H](CCCNC(=N)N)NC(=O)[C@@H](Cc2ccc(O)cc2)NC(=O)CSC[C@@H](C(=O)NCC(N)=O)NC(=O)[C@H](CC(=O)O)NC1=O [Peptide N11] ({CH2CO}-[dY]RQFNRRTHE[NMeV]WNLDCG-NH2; thioether N-16; C-terminus assumed) | – | kon (c-Met-Fc; Table 8, c-Met-Fc): 15000 M⁻¹ s⁻¹ |
| – | – | – | – | N3: N-methylated peptide of D4-3 ({CH2CO}-[dY]R[NMeQ]FNRRTHEVWNLDC-NH2; thioether N-16; also: bridge 1-16 listed as disulfide) [Peptide N3] | 0.31 10^−2 s^−1 | Kd (c-Met-Fc; Table 8, c-Met-Fc): 120 nM; ka (c-Met-Fc; Table 8, c-Met-Fc): 0.27 10^5 M^−1s^−1 |
| – | – | – | – | N9: N-methylated peptide of D4-3 ({CH2CO}-[dY]RQFNRRT[NMeH]EVWNLDC-NH2; thioether N-16; also: bridge 1-16 listed as disulfide) [Peptide N9] | – | KD (c-Met-Fc; Table 8, c-Met-Fc): Not binding |
| – | – | – | – | N10: N-methylated peptide of D4-3 ({CH2CO}-[dY]RQFNRRTH[NMeE]VWNLDC-NH2; thioether N-16; also: bridge 1-16 listed as disulfide) [Peptide N10] | 0.75 10^−2 s^−1 | Kd (c-Met-Fc; Table 8, c-Met-Fc): 300 nM; ka (c-Met-Fc; Table 8, c-Met-Fc): 0.25 10^5 M^−1s^−1 |
